Measurements as given in doi:10.1101/2021.04.09.439147 (bioRxiv, 2021).

Target: T1, SARS-CoV-2 S1 subunits-His tag (SARS-CoV-2, reference assumed, UniProt P0DTC2)
T1 construct: source: bought: Sino Biological
Experiment: ELISA
Details: both partners purified

B1: FLAG-tagged K-874A (VHH)
VHH: EVQLVESGGGQVETGGSLRLSCQASGSTFSDYVMAWFRQRPGKEREFVATISRNGGTTTYGSSVKGRFTISRDNAKSTVYLQMNSLKPEDTAVYYCYAVGGDGDSWGQGTQVTVSS
notes: also called CoVHH1-FLAG
  binding result: binds
